Laboratory results taken from US9993566B2, “SEZ6 modulators and methods of use” (AbbVie Stemcentrx LLC, priority 2013, dated 2018).

B1: SC17.19: murine anti-SEZ6 antibody (antibody, V domains shown)
VH: DVQLQESGPGLVKPSQSLSVTCTVTGYSITSSYTWNWIRQFPGNKLEWMGYIHYSGSTNYNPSLRSRISITRDTSKNQFFLQLNSVTTEDTATYYCARSRYYYDAYGFAYWGQGTLVTVSA
VL: DIVLTQSPASLAVSLGQRAAISCKPSQSVDYDGDSYMNWYQQKPGQPPKLLIYAASNLESGIPARFSGSGSGTDFTLNIHPVEEEDAATYYCHQINDDPWTFGGGTKLK
modifications: Murine SC17.19 VH; Murine SC17.19 VL
notes: murine anti-SEZ6 antibody
B2: SC17.34: murine anti-SEZ6 antibody (antibody, V domains shown)
VH: EVQLQQSGPELVKPGSSVKISCKASGYTFTDYNMDWVKQSHGKRLEWIGYIYPDNGGAGYNQKFKGKATLTVDKSSSTAYMELRSLTSEDSAVYYCSRSITTAWFAYWGQGTLVTVSA
VL: DIKMTQSPSSMYASLGERVTITCKASQDINSYLSWFQQKPGKSPKTLIYRANRLVDGVPSRFSGSGSGQDYSLTISSLEYEDMGIYYCLQYDEFPPTFGGGTKLEIK
modifications: Murine SC17.34 VH; Murine SC17.34 VL
notes: murine anti-SEZ6 antibody
B3: SC17.24-ADC2: SC17.24 antibody conjugated to PBD dimer cytotoxic agent (and linker) ADC2 (conjugate)
VL: DIVMSQSPSSLAVSVGEKVTMSCKSSQSLLYSSNQKSYLAWYQQKPGQSPKLLIYWASTRESGVPDRFTGSGSGTDFTLTISSVQAEDLAVYYCKQSYNLRTFGGGTKLEIK
VH: QVQLQQSDAELVKPGASVKISCKVSGYTFTDHTIHWMKQRPEQGLEWIGYIYPRDGSTKYNEEFKGKATLTADKSSSTAYMQLNSLTSEDSAVYFCARSYSNYFDYWGQGTTLTVSS
B4: SC17.28-ADC2: SC17.28 antibody conjugated to PBD dimer cytotoxic agent (and linker) ADC2 (conjugate)
VL: DILLTQSPAILSVSPGEGVSFSCRASQSIGTSIHWYQQRTNGSPRLLIKYASESISGIPSRFSGSGSGTDFTLRINSLESEDIADYYCQQSNSWPLTFGAGTKLELK
VH: QVHLPQSRPELVKPGASVKISCKASGYGFTRSYIHWVKQRPGQGLEWIGYISSGSGGTTYNQKFKGKASLTADNPSSTAYMHLSSLTSEDSAIYFCARGGVRYFDVWGAGTTVTVSS
B5: SC17.34-ADC2: SC17.34 antibody conjugated to PBD dimer cytotoxic agent (and linker) ADC2 (conjugate)
VL: B2 VL
VH: B2 VH

Tests used:
[1] = biological target: T1, mouse SEZ6 (Mus musculus, UniProt Q7TSK2); assay: Flow cytometry cross reactivity, Neuro2a cells; format: binding; conditions: 5 μg/mL antibody
T1 construct: Neuro2a (ATCC Cat # CCL131), and RIN-m5F (ATCC cat # CRL-11605) cell lines which express mouse SEZ6 and rat SEZ6; host or cells: Neuro2a
Method: (§1) In this regard flow cytometry was performed using a FACSCanto II as per the manufacturer's instructions in order to confirm that selected SC17 antibody modulators can immunospecifically associate with human SEZ6 and to determine whether the same modulators cross-react with cynomolgus, rat and/or murine SEZ6 in addition to SEZ6L and SEZ6L2. More particularly modulators were tested for cross reactivity to murine SEZ6 and rat SEZ6 by flow cytometry against Neuro2a (ATCC Cat # CCL131), and RIN-m5F (ATCC cat # CRL-11605) cell lines which express mouse SEZ6 and rat SEZ6, respectively. For examining cross reactivity to cynomolgus SEZ6, yeast displaying the extracellular domain of cynomolgus SEZ6 (Boder et al, 1997) were used for flow cytometry analysis.
(§2) Briefly 1×10^5 cells per well of Neuro2a, RIN-5mF, or yeast displaying cynomolgus SEZ6 cells were incubated for 30 minutes with 50 μL PBS (2% FCS) buffer with 5 μg/mL antibody. Cells were washed twice with the same buffer and then incubated with 50 μL per sample DyLight 649 labeled goat-anti-mouse IgG, Fc fragment specific secondary diluted 1:200 in PBS buffer. After incubating for 15 minutes cells were washed twice with the PBS buffer and re-suspended in the same with DAPI for flow cytometry analysis of Neuro2a and Rin-m5F or buffer without DAPI for flow cytometric analysis of yeast cells with cSEZ6.

[2] = biological target: T2, SEZ6L2 (Homo sapiens, UniProt Q6UXD5, INS830AYEELLDNRKLEV); assay: ELISA cross reactivity to family member SEZ6L2; format: binding; set-up: key to binds SEZ6 family member SEZ6L2 (dagger): *: antibodies that bind SEZ6 family members SEZ6L and SEZ6L2 are designated with an asterisk and/or a dagger, respectively; †: antibodies that bind SEZ6 family members SEZ6L and SEZ6L2 are designated with an asterisk and/or a dagger, respectively
T2 construct: IgK signal peptide (N, cleaved yes); made in house; host or cells: HEK-293T or CHO-S
Method: To determine cross reactivity to family member proteins, SEZ6L and SEZ6L2, an ELISA-based assay was used. Plates were coated with SEZ6, SEZ6L, or SEZ6L2 proteins at 0.2 μg/mL in PBS overnight. After washing with PBS containing 0.05% (v/v) Tween 20 (PBST), the wells were blocked with 2% (w/v) BSA in PBS (PBSA), 100 μL/well for 1 hour at room temperature. Antibody was then added at 1 μg/mL in 100 μL PBSA for 1 hour at room temperature. After washing with PBST, 100 μL/well HRP-labeled goat anti-mouse IgG diluted 1:2,000 in PBSA for 1 hour at room temperature. The plates were washed and 100 μL/well of the TMB substrate solution (Thermo Scientific 34028) was added for 15 minutes at room temperature. After developing, an equal volume of 2M H2SO4 was added to stop substrate development and analyzed by spectrophotometer at OD 450. […] As discussed above, such pan-SEZ6 antibodies are compatible with the teachings herein and may be used in conjunction with the disclosed methods.

[3] = tested on: LU100, a SCLC tumor; assay: Fab-saporin cytotoxicity in NTX tumor cells; format: cell-based, human; conditions: 50 and 500 pM antibody with Fab-saporin, seven days
Method: To corroborate the results of Example 14 and determine whether SEZ6 modulators can mediate toxin internalization and cell killing of human tumor cells (as opposed to engineered cells), mouse lineage-depleted NTX cells were plated and subsequently exposed to anti-SEZ6 antibodies and Fab-saporin.
(§3) NTX tumors were dissociated into a single cell suspension and plated on Primaria™ plates (BD Biosciences) in growth factor supplemented serum free media as is known in the art. After culturing the cells for one day at 37° C./5% CO2/5% O2, they were treated with a control (IgG1, IgG2a or IgG2b) or a murine SEZ6 modulator and Fab-saporin as described in Example 14. After seven days, the modulator-mediated saporin cytotoxicity was assessed by quantifying the remaining number of live cells using Cell Titer Glo.

[4] = tested on: rat SEZ6; assay: Flow cytometry cross reactivity, RIN-m5F cells; format: binding; conditions: 5 μg/mL antibody
Method: as §1, §2

[5] = tested on: cynomolgus SEZ6; assay: Flow cytometry cross reactivity, yeast displaying extracellular domain of cynomolgus SEZ6; format: binding; conditions: 5 μg/mL antibody
Method: as §1, §2

[6] = biological target: T3, SEZ6 ECD (Homo sapiens, UniProt Q53EL9); assay: Fine epitope mapping (phage display peptide library or yeast-displayed SEZ6 ECD mutants); format: binding; conditions: epitope conformational (discontinuous) or linear
T3 construct: SEZ6 extracellular domain (amino acids 1-904); expressed in transfected cells; host or cells: yeast (surface display, Cochran et al. protocol)
Method: Epitopes were classified either as conformational (i.e. discontinuous) or linear. Yeast displaying the SEZ6 ECD construct was heat treated for 30 minutes at 80° C. in order to denature the antigen, washed twice in ice-cold PBSA and then subjected to the same staining protocol and flow cytometry analysis as described above. Antibodies that bound to both the denatured and native yeast were classified as binding to a linear epitope, whereas antibodies that bound native yeast but not denatured yeast were classified as conformationally specific.
Fine epitope mapping was further performed on selected antibodies to determine the specific amino acids to which they bound. Antibodies that bound to a linear epitope were mapped using the Ph.D.-12 phage display peptide library kit (New England Biolabs E8110S). The antibody selected for epitope mapping was coated onto a Nunc MaxiSorp tube (Nunc) at 50 μg/mL in 3 mL 0.1 M sodium bicarbonate solution, pH 8 and incubated overnight. The tube was blocked with 3% BSA solution in bicarbonate solution. Then, 10^11 input phage in PBS+0.1% Tween-20 was allowed to bind, followed by ten consecutive washes with 0.1% Tween-20 to wash away non-binding phage. Remaining phage were eluted with 1 mL 0.2 M glycine for 10 minutes at room temperature with gentle agitation, followed by neutralization with 150 μL 1 M Tris-HCl pH 9. Eluted phage were amplified and panned again with 10^11 input phage, using 0.5% Tween-20 during the wash steps to increase selection stringency. DNA from 24 plaques of the eluted phage from the second round was isolated using the Qiaprep M13 Spin kit (Qiagen) and sequenced. Binding of clonal phage was confirmed using an ELISA assay, where the mapped antibody or a control antibody was coated onto an ELISA plate, blocked, and exposed to each clone phage. Phage binding was detected using horseradish peroxidase conjugated anti-M13 antibody (GE Healthcare), and the 1-Step Turbo TMB ELISA solution (Pierce). Phage peptide sequences from specifically binding phage were aligned using Vector NTI (Life Technologies) against the antigen ECD peptide sequence to determine the epitope of binding.
Selected antibodies that bound to a discontinuous epitope were mapped using the technique described by Chao et al. (2007). Libraries of SEZ6 ECD mutants were generated with error prone PCR using nucleotide analogues 8-oxo-2′deoxyguanosine-5′-triphosphate and 2′-deoxy-p-nucleoside-5′triphosphate (both from TriLink Bio) for a target mutagenesis rate of one amino acid mutation per clone. These were transformed into a yeast display format. Using the technique described above for domain-level mapping, the library was stained for c-myc and antibody binding at 50 nM. […] These clones were re-grown, and subjected to another round of FACS sorting for loss of binding to the target antibody. Using the Zymoprep Yeast Plasmid Miniprep kit (Zymo Research), individual ECD clones were isolated and sequenced. Where necessary, mutations were reformatted as single-mutant ECD clones using the Quikchange site directed mutagenesis kit (Agilent).
Individual ECD clones were next screened to determine whether loss of binding was due to a mutation in the epitope, or a mutation that caused misfolding. Mutations that involved cysteine, proline, and stop codons were automatically discarded due to the high likelihood of a misfolding mutation. Remaining ECD clones were then screened for binding to a non-competing, conformationally specific antibody. ECD clones that lost binding to non-competing, conformationally specific antibodies were concluded to contain misfolding mutations, whereas ECD clones that retained equivalent binding as wild type SEZ6 ECD were concluded to be properly folded. Mutations in the ECD clones in the latter group were concluded to be in the epitope. […]

[7] = tested on: OV26, a NET ovarian tumor; assay: ADC cytotoxicity in NTX tumor cells in vitro; format: cell-based, human; conditions: compared to control msIgG1
Method: as §3
(§4) Mouse lineage-depleted NTX tumor cells were exposed to anti-SEZ6 ADCs or a mouse isotype control (msIgG1) using the same method as described in Example 15, except that Fab-saporin was not added.

[8] = tested on: LU64, a SCLC tumor; assay: ADC cytotoxicity in NTX tumor cells in vitro; format: cell-based, human; conditions: compared to control msIgG1
Method: as §3, §4

rat SEZ6, sequence (as listed by the source): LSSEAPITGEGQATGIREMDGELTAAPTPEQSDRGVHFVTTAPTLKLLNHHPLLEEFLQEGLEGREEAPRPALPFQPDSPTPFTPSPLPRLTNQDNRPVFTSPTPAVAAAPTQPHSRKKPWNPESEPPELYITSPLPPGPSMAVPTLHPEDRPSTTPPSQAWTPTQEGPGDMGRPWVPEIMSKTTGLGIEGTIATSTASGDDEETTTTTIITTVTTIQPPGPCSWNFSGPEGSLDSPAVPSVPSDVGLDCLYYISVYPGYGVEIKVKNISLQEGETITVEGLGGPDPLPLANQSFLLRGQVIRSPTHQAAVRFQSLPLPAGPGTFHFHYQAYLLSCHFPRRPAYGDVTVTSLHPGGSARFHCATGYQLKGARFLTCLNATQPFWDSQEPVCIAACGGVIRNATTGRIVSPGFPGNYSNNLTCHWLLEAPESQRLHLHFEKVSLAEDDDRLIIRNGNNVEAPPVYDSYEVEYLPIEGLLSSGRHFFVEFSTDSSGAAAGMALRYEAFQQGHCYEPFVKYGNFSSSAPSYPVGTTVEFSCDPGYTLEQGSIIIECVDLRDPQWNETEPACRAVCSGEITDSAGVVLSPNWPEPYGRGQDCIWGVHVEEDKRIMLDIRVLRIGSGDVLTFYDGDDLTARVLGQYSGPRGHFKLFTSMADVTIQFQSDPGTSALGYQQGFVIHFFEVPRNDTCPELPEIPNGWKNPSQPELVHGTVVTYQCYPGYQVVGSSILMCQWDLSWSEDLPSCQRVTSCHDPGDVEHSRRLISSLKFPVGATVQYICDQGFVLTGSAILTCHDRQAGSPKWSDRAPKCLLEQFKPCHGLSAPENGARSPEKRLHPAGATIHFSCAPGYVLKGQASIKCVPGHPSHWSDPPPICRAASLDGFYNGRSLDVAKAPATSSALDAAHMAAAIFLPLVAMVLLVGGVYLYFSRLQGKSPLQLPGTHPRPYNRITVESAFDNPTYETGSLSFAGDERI
T2 sequence (Q6UXD5 with tags, fused parts or gaps with the stated changes): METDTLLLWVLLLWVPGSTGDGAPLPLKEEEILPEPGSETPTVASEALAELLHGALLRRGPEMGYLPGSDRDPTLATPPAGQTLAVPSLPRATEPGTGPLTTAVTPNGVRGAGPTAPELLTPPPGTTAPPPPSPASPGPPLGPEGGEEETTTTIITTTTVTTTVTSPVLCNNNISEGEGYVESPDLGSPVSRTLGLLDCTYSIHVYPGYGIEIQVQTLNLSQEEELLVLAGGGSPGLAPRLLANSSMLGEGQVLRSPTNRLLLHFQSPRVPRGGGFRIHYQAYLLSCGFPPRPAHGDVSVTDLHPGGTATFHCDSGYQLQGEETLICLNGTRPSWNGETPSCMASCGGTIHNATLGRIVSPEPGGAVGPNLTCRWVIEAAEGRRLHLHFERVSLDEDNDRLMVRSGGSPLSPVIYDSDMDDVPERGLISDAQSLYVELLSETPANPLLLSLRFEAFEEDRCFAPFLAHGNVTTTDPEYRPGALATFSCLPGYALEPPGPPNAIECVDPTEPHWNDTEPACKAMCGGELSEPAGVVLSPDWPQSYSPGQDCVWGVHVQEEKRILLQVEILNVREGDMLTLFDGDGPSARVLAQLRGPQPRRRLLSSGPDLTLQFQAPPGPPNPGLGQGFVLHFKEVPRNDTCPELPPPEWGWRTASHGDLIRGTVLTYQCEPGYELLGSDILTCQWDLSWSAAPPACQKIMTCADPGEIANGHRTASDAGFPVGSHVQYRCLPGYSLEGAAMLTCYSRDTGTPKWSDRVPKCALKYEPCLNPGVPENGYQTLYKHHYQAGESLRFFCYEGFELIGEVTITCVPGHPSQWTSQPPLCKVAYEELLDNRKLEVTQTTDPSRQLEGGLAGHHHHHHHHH
T1 sequence (Q7TSK2 20-991): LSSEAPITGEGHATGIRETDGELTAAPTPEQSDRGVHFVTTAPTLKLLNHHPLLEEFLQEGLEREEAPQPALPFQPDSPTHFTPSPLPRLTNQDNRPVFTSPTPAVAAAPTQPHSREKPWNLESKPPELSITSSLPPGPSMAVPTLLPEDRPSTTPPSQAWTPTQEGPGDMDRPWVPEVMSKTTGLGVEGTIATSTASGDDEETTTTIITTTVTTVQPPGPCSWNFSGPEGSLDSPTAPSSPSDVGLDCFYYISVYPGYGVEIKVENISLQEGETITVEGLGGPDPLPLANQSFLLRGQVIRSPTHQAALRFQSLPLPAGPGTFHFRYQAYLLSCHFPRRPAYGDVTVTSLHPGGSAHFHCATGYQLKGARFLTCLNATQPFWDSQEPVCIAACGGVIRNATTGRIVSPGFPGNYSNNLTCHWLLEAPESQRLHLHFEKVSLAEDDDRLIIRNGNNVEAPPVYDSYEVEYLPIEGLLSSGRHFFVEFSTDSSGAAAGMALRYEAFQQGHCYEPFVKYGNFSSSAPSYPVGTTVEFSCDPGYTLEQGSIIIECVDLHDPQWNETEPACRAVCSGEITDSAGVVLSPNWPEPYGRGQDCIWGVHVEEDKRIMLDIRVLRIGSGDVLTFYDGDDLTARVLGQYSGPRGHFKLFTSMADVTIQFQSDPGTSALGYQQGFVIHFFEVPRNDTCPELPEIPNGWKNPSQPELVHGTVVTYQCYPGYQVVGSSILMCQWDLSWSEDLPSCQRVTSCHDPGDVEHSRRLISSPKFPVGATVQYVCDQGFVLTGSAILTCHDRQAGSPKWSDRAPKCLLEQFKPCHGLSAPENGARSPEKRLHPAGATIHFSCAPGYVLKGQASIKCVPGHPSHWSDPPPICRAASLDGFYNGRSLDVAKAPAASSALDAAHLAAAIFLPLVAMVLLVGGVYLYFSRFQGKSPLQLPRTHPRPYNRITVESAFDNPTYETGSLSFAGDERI
T3 sequence (Q53EL9 20-923): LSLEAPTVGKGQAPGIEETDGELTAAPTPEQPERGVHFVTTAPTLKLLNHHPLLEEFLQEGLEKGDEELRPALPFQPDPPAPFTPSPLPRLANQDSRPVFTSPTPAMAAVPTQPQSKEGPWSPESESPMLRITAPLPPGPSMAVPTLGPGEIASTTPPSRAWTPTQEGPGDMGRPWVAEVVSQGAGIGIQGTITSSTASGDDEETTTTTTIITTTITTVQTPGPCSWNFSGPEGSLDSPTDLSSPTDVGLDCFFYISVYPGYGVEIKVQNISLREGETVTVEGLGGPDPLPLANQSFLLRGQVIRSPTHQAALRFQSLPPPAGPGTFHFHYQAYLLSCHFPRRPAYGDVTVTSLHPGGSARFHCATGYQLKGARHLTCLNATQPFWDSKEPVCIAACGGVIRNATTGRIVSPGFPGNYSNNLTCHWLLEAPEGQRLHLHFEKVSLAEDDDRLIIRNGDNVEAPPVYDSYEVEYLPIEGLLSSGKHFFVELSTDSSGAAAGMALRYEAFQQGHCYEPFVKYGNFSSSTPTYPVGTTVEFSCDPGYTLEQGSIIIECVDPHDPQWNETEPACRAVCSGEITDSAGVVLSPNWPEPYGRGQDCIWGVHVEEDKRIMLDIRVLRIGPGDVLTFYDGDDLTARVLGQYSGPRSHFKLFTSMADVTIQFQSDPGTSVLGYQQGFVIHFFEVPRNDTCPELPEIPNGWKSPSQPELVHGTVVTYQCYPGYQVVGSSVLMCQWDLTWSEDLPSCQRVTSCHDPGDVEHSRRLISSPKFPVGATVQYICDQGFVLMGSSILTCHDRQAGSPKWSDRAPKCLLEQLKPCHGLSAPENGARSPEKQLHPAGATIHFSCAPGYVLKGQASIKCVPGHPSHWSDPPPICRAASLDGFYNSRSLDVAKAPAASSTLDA

| Molecule | number of tumor cells, LU100 [3] | cross reactivity to rat SEZ6 [4] | percent viable cells, OV26 [7] | percent viable cells, LU64 [8] | also measured |
| --- | --- | --- | --- | --- | --- |
| B1 | reduction of tumor cells | cross reactive | – | – | cross reactivity to murine SEZ6 [1]: cross reactive; cross reactivity with SEZ6L2 ([2]; ELISA, antibody 1 μg/mL): cross-reactive; binds SEZ6 family member SEZ6L2 (dagger) ([2]; mark in Table 5): SC17.SC17, SC17.19^†, SC17.93, SC17.102, SC17.121, |
| B2 | reduction of tumor cells | cross reactive | – | – | cross reactivity to cynomolgus SEZ6 [5]: cross reactive; Discontinuous [6]: Yes |
| B3 | – | – | increased reduction in percent viable cells | increased reduction in percent viable cells | – |
| B4 | – | – | increased reduction in percent viable cells | increased reduction in percent viable cells | – |
| B5 | – | – | increased reduction in percent viable cells | increased reduction in percent viable cells | – |
